Laboratory results taken from US20220175942A1 (OXFORD UNIVERSITY INNOVATION, published 2022).

B1: CCL5_HUMAN (ligand)
chain: SPYSSDTTPCCFAYIARPLPRAHIKEYFYTSGKCSNPAVVFVTRKNRQVCANPEKKWVREYINSLEMS
notes: Biotinylated (detected with streptavidin-Alexa647) in yeast display; AlexaFluor 647 labelled (Almac) in thermophoresis
B4: P546_AMBCA (other)
chain: ENTQQEEEDYDYGTDTCPFPVLANKTNKAKFVGCHQKCNGGDQKLTDGTACYVVERKVWDRMTPMLWYSCPLGECKNGVCEDLRKKEECRKGNGEEK
notes: Tick evasin; also called Evasin

Columns and labels:
P467_RHIPU = target: T1, P467_RHIPU (Rhipicephalus pulchellus, UniProt L7M8Z8 22-127); assay: microscale thermophoresis, AlexaFluor 647 labelled chemokine
T1 construct: Tick evasin; also called Evasin
T1 sequence: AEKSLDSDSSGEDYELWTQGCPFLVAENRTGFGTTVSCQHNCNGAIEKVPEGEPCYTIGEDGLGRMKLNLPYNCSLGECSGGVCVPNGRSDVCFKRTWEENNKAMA

P985_AMBPA [1] = target: T2, P985_AMBPA (Amblyomma parvum, UniProt A0A023FT45 25-132); assay: as above
T2 construct: Tick evasin; also called Evasin
T2 sequence: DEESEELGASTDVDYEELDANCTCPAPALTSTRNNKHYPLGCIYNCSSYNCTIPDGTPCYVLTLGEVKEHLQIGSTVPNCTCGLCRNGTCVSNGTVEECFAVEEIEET

P1243_AMBAM [2] = target: T3, P1243_AMBAM (Amblyomma americanum, UniProt A0A0C9S461 26-123); assay: as above
T3 construct: Tick evasin; also called Evasin
T3 sequence: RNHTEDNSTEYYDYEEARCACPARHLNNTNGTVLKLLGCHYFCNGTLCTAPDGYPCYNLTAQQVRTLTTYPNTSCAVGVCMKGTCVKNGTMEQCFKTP

CCL5_HUMAN = target: B1; assay: as above
CCL18_HUMAN = target: T4, CCL18_HUMAN (human, UniProt P55774 21-89); assay: yeast surface display FACS re-test, >3 fold MFI over control (col D);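 further: yeast displaying putative tick Evasins stained with biotinylated human chemokine plus streptavidin-Alexa647, flow cytometry, positive when MFI exceeds 3-fold the empty-vector or no-chemokine background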
T4 construct: Biotinylated (detected with streptavidin-Alexa647) in yeast display; AlexaFluor 647 labelled (Almac) in thermophoresis
T4 sequence: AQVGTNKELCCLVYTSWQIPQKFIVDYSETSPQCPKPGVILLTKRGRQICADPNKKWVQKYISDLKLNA

CCL1_HUMAN = target: T5, CCL1_HUMAN (human, UniProt P22362 24-96); assay: yeast surface display library FACS screen, labelled chemokine (col C: isolated in)
T5 construct: Biotinylated (detected with streptavidin-Alexa647) in yeast display; AlexaFluor 647 labelled (Almac) in thermophoresis
T5 sequence: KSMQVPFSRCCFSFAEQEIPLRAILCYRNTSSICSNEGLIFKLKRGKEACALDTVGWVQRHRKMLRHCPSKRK

CCL11_HUMAN = target: T6, CCL11_HUMAN (human, UniProt P51671 24-97); assay: as above
T6 construct: Biotinylated (detected with streptavidin-Alexa647) in yeast display; AlexaFluor 647 labelled (Almac) in thermophoresis
T6 sequence (P51671 24-97 limits assumed): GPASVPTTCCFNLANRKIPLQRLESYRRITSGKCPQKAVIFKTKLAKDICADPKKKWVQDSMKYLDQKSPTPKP

CXCL8_HUMAN = target: T7, CXCL8_HUMAN (human, UniProt P10145 28-99); assay: as above
T7 construct: Biotinylated (detected with streptavidin-Alexa647) in yeast display; AlexaFluor 647 labelled (Almac) in thermophoresis
T7 sequence: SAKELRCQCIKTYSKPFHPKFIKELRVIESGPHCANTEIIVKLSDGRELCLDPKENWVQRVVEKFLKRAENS

CCL25_HUMAN = target: T8, CCL25_HUMAN (human, UniProt O15444 24-150); assay: microscale thermophoresis, AlexaFluor 647 labelled chemokine
T8 construct: Biotinylated (detected with streptavidin-Alexa647) in yeast display; AlexaFluor 647 labelled (Almac) in thermophoresis
T8 sequence: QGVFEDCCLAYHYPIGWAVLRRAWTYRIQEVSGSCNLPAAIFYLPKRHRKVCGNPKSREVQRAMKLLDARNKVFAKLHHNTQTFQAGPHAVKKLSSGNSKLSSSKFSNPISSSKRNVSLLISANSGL

P546_AMBCA [3] = target: B4; assay: yeast surface display FACS re-test, >3 fold MFI over control (col D);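 further: yeast displaying putative tick Evasins stained with biotinylated human chemokine plus streptavidin-Alexa647, flow cytometry, positive when MFI exceeds 3-fold the empty-vector or no-chemokine background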
P983_AMBCA = target: T9, P983_AMBCA (Amblyomma cajennense, UniProt A0A023FFB5 22-119); assay: as above
T9 construct: Tick evasin; also called Evasin
T9 sequence: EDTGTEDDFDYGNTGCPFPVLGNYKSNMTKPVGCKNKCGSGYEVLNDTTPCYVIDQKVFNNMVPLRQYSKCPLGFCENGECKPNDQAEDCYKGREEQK

P985_AMBPA [4] = target: T2, P985_AMBPA; assay: as above
P1180_AMBTR = target: T10, P1180_AMBTR (Amblyomma triste, UniProt A0A023G6B6 26-116); assay: yeast surface display library FACS screen, labelled chemokine (col C: isolated in)
T10 construct: Tick evasin; also called Evasin
T10 sequence: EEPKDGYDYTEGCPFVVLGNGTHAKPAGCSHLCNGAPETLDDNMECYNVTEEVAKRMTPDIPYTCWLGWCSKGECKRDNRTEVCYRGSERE

P1181_AMBMA = target: T11, P1181_AMBMA (Amblyomma maculatum, UniProt G3MIX6 26-115); assay: as above
T11 construct: Tick evasin; also called Evasin
T11 sequence: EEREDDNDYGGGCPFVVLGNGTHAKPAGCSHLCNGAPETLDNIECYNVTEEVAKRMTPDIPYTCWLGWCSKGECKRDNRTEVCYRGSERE

P1182_AMBMA = target: T12, P1182_AMBMA (Amblyomma maculatum, UniProt G3MJ83 27-115); assay: as above
T12 construct: Tick evasin; also called Evasin
T12 sequence: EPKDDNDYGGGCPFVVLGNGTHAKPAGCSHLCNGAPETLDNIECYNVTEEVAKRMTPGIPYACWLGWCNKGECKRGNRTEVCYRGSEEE

P1243_AMBAM [5] = target: T3, P1243_AMBAM; assay: as above
P974_AMBCA = target: T13, P974_AMBCA (Amblyomma cajennense, UniProt A0A023FDY8 22-118); assay: as above
T13 construct: Tick evasin; also called Evasin
T13 sequence: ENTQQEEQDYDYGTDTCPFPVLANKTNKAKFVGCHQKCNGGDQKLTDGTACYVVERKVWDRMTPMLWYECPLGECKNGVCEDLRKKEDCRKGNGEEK

P991_AMBCA = target: T14, P991_AMBCA (Amblyomma cajennense, UniProt A0A023FFD0 29-136); assay: as above
T14 construct: Tick evasin; also called Evasin
T14 sequence: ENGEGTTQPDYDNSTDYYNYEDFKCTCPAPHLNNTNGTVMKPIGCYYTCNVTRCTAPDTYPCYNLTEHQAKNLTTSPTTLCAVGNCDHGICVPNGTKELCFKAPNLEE

P546_AMBCA [6] = target: B4; assay: microscale thermophoresis, AlexaFluor 647 labelled chemokine
P672_RHIPU = target: T15, P672_RHIPU (Rhipicephalus pulchellus, UniProt L7MC74 22-125); assay: yeast surface display library FACS screen, labelled chemokine (col C: isolated in)
T15 construct: Tick evasin; also called Evasin
T15 sequence: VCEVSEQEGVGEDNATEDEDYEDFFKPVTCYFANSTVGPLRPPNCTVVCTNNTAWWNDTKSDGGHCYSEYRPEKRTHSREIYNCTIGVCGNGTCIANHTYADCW

B1
Kd (P467_RHIPU): 48 nM | Kd (P985_AMBPA [1]): 48 nM

B2: CCL15_HUMAN (ligand)
chain: QFTNDAETELMMSKLPLENPVVLNSFHFAADCCTSYISQSIPCSLMKSYFETSSECSKPGVIFLTKKGRQVCAKPSGPGVQDCMKKLKPYSI
notes: as for B1
Kd (P1243_AMBAM [2]): 4 nM

B3: P1215_AMBPA (other)
chain: KTDTKNAAGELPPKVVIPGCEDPATTKAPLPDEPPYYGITIDKDGCQRKVLGSSQRQQRKVQNGRKLDGKKRGRRPVFVDLELTVDCKRKCNGTYSQLPDGENCLVSDGYPYGRWGTIKGGCYQGNCSSGQCHRGEKKVNCYLPKNITNDVPKSLNLAE
notes: as for B4
Kd (CCL5_HUMAN): 73 nM | binding result (CCL18_HUMAN): binds | binding result (CCL1_HUMAN): binds | binding result (CCL11_HUMAN): binds | binding result (CXCL8_HUMAN): binds

B4
Kd (CCL25_HUMAN): 1220 nM

B5: CCL4 (ligand)
chain: APMGSDPPTACCFSYTARKLPRNFVVDYYETSSLCSQPAVVFQTKRSKQVCADPSESWVQEYVYDLELN
notes: Biotinylated (detected with streptavidin-Alexa647) in yeast display; also called human CCL4
binding result (P546_AMBCA [3]): binds | binding result (P983_AMBCA): binds | binding result (P985_AMBPA [4]): binds | binding result (P1180_AMBTR): binds | binding result (P1181_AMBMA): binds | binding result (P1182_AMBMA): binds | binding result (P1243_AMBAM [5]): binds | binding result (P974_AMBCA): binds | binding result (P991_AMBCA): binds

B6: CCL8_HUMAN (ligand)
chain: QPDSVSIPITCCFNVINRKIPIQRLESYTRITNIQCPKEAVIFKTKRGKEVCADPKERWVRDSMKHLDQIFQNLKP
notes: as for B1
Kd (P546_AMBCA [6]): 80 nM | binding result (P1182_AMBMA): binds | binding result (P672_RHIPU): binds
